Experimental data: the supplement of paper PMC7125110
± gives the standard error. Fewer inactive variants are shown than the library holds.

B1: glmS ribozyme (parent)
chain: AUAAAAGCGCCAGAACUACAGAAAUGUAGUUGACGAGGAGGAGGUUUAUCGAAUUUUCGGCGGAUGCCUCCAAA

Experiments:
Settings in all cases: with glucosamine-6-phosphate
[1] = variants of: B1; experiment: self-cleavage kobs at 40 uM GlcN6P; higher = faster cleavage; RNA array
Method in brief: (§1)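 Barcoded ribozyme variants, transcribed in situ by E. coli RNA polymerase on sequenced MiSeq chips, were followed via a hybridised Cy3 probe at 37 °C. Glucosamine-6-phosphate ranged from 40 μM to 10 mM in HEPES/KCl/Mg(OAc)2 buffer. kobs came from decay fits to per-tile medians, and kcat and KM from weighted Michaelis–Menten fits.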

[2] = variants of: B1; experiment: self-cleavage kobs at 640 uM GlcN6P; higher = faster cleavage; RNA array
Method in brief: as §1

[3] = variants of: B1; experiment: self-cleavage kobs at 2500 uM GlcN6P; higher = faster cleavage; RNA array
Method in brief: as §1

[4] = variants of: B1; experiment: self-cleavage kobs at 10000 uM GlcN6P; higher = faster cleavage; RNA array
Method in brief: as §1

[5] = variants of: B1; experiment: self-cleavage kobs at 160 uM GlcN6P; higher = faster cleavage; RNA array
Method in brief: as §1

| Variant | self-cleavage kobs at 40 uM GlcN6P [1] | self-cleavage kobs at 640 uM GlcN6P [2] | self-cleavage kobs at 2500 uM GlcN6P [3] | self-cleavage kobs at 10000 uM GlcN6P [4] | self-cleavage kobs at 160 uM GlcN6P [5] |
| --- | --- | --- | --- | --- | --- |
| U31G U47C | 2.84e-05 ± 1.3e-05 s⁻¹ | 0.000197 ± 4.8e-05 s⁻¹ | 0.000501 ± 0.00015 s⁻¹ | – | – |
| C10U G32U A64C | < 1e-05 s⁻¹ | – | – | < 1e-05 s⁻¹ | – |
| A33C G43C | < 1e-05 s⁻¹ | < 1e-05 s⁻¹ | < 1e-05 s⁻¹ | < 1e-05 s⁻¹ | < 1e-05 s⁻¹ |
| C10A C16G U31G G38A C61U | < 1e-05 s⁻¹ | – | – | < 1e-05 s⁻¹ | – |
| A14C G29A A33U | < 1e-05 s⁻¹ | – | < 1e-05 s⁻¹ | – | < 1e-05 s⁻¹ |
| G51A G63U | < 1e-05 s⁻¹ | – | – | < 1e-05 s⁻¹ | – |
| A42C U54A | < 1e-05 s⁻¹ | < 1e-05 s⁻¹ | < 1e-05 s⁻¹ | – | < 1e-05 s⁻¹ |
| A42U C61U | < 1e-05 s⁻¹ | < 1e-05 s⁻¹ | < 1e-05 s⁻¹ | < 1e-05 s⁻¹ | < 1e-05 s⁻¹ |
| C16A A42U G63U | < 1e-05 s⁻¹ | < 1e-05 s⁻¹ | < 1e-05 s⁻¹ | – | – |
| G35A G41A A48G C61U | < 1e-05 s⁻¹ | – | – | – | – |
| A33C A36G C67G | < 1e-05 s⁻¹ | – | – | – | – |
| U56G G62C | < 1e-05 s⁻¹ | – | < 1e-05 s⁻¹ | – | < 1e-05 s⁻¹ |
| G51A U55G C68G | < 1e-05 s⁻¹ | – | – | < 1e-05 s⁻¹ | – |
| A15C A48G U69G | < 1e-05 s⁻¹ | – | – | < 1e-05 s⁻¹ | – |
| A15C C34A G37U G41A | < 1e-05 s⁻¹ | – | – | < 1e-05 s⁻¹ | – |
| U31C C34G G37A A42U U47A A52U | < 1e-05 s⁻¹ | – | – | < 1e-05 s⁻¹ | – |
| A15C A36C C71U | < 1e-05 s⁻¹ | – | – | < 1e-05 s⁻¹ | – |
| A6G A14G G29C G38A A39G G40A A42U U54C U56A G60C | < 1e-05 s⁻¹ | – | – | – | – |
| G7C A12G C67A | < 1e-05 s⁻¹ | – | – | < 1e-05 s⁻¹ | – |
| A12U A39U C71U | 0.000517 ± 0.00011 s⁻¹ | – | – | 0.0493 ± 0.014 s⁻¹ | – |
| A12U C68U | 0.000326 ± 3.4e-05 s⁻¹ | 0.00195 ± 0.00021 s⁻¹ | 0.0112 ± 0.002 s⁻¹ | 0.00957 ± 0.0013 s⁻¹ | 0.000964 ± 9.8e-05 s⁻¹ |
| G62U G63A | < 1e-05 s⁻¹ | < 1e-05 s⁻¹ | < 1e-05 s⁻¹ | < 1e-05 s⁻¹ | < 1e-05 s⁻¹ |

| Variant | self-cleavage kobs at 40 uM GlcN6P [1] | self-cleavage kobs at 640 uM GlcN6P [2] | self-cleavage kobs at 2500 uM GlcN6P [3] | self-cleavage kobs at 10000 uM GlcN6P [4] | self-cleavage kobs at 160 uM GlcN6P [5] |
| --- | --- | --- | --- | --- | --- |
| G43U C61U C68U | < 1e-05 s⁻¹ | < 1e-05 s⁻¹ | – | < 1e-05 s⁻¹ | – |
| G32C U45C U69A | < 1e-05 s⁻¹ | – | – | – | – |
| G7C G59C | < 1e-05 s⁻¹ | < 1e-05 s⁻¹ | < 1e-05 s⁻¹ | < 1e-05 s⁻¹ | < 1e-05 s⁻¹ |
| A12G C16A A36G U69C | < 1e-05 s⁻¹ | – | – | – | – |
| U57C G62U C70A | < 1e-05 s⁻¹ | – | – | – | – |
| C10G G13A | < 1e-05 s⁻¹ | < 1e-05 s⁻¹ | – | – | < 1e-05 s⁻¹ |
| G7C G38U | < 1e-05 s⁻¹ | < 1e-05 s⁻¹ | – | < 1e-05 s⁻¹ | < 1e-05 s⁻¹ |
| A6G C71A | < 1e-05 s⁻¹ | – | – | – | < 1e-05 s⁻¹ |
| C16A G60U | < 1e-05 s⁻¹ | < 1e-05 s⁻¹ | < 1e-05 s⁻¹ | < 1e-05 s⁻¹ | < 1e-05 s⁻¹ |
| A12U U57C C61A | < 1e-05 s⁻¹ | < 1e-05 s⁻¹ | – | < 1e-05 s⁻¹ | – |
| C8G A36U G60C | < 1e-05 s⁻¹ | – | – | < 1e-05 s⁻¹ | – |
| U30C G38U G43C U46G | < 1e-05 s⁻¹ | < 1e-05 s⁻¹ | – | < 1e-05 s⁻¹ | – |
| C50U A64U | < 1e-05 s⁻¹ | – | – | < 1e-05 s⁻¹ | < 1e-05 s⁻¹ |
| C8A G13A | < 1e-05 s⁻¹ | < 1e-05 s⁻¹ | < 1e-05 s⁻¹ | < 1e-05 s⁻¹ | < 1e-05 s⁻¹ |
| A6C G9U U47G | < 1e-05 s⁻¹ | – | < 1e-05 s⁻¹ | < 1e-05 s⁻¹ | – |
| C34U C50G A53U C68G | 8.23e-05 ± 1.6e-05 s⁻¹ | 0.000541 ± 0.00016 s⁻¹ | – | 0.000111 ± 1.6e-05 s⁻¹ | – |
| C16G A36U C50G C68G | 0.000149 ± 4.4e-05 s⁻¹ | 0.000979 ± 0.00021 s⁻¹ | – | 0.000404 ± 7.1e-05 s⁻¹ | 0.000256 ± 4.1e-05 s⁻¹ |
| A15C G32U A42U | < 1e-05 s⁻¹ | – | – | < 1e-05 s⁻¹ | – |
| G35C U56C | < 1e-05 s⁻¹ | < 1e-05 s⁻¹ | < 1e-05 s⁻¹ | < 1e-05 s⁻¹ | < 1e-05 s⁻¹ |
| G35C U56G | < 1e-05 s⁻¹ | < 1e-05 s⁻¹ | < 1e-05 s⁻¹ | < 1e-05 s⁻¹ | < 1e-05 s⁻¹ |
| U54A C71A | 0.000351 ± 6.3e-05 s⁻¹ | 0.000818 ± 0.00011 s⁻¹ | 0.00847 ± 0.0023 s⁻¹ | 0.0109 ± 0.0026 s⁻¹ | 0.000583 ± 8.5e-05 s⁻¹ |
| A39G G59U | < 1e-05 s⁻¹ | – | – | 5.72e-05 ± 9.8e-06 s⁻¹ | < 1e-05 s⁻¹ |
